Data: publication doi:10.1101/2025.02.06.636884

Target: cytosolic fragment of the McpN chemoreceptor (Pseudomonas aeruginosa PAO1)
Experiment: ITC

CheV D238E (natural protein)
KD of the first binding event (high affinity, endothermic): 8 nM | KD of the second binding event (lower affinity, exothermic): 3000 nM | N of the first binding event: 0.5
